Data reported in patent US20240369485A1, “FLUORESCENT SENSOR FOR MONITORING CALCIUM DYNAMICS” (priority 2021, published 2024).

Columns and labels:
C2C12 cells = assay: HILO imaging of ER Ca^2+ dynamics in C2C12 cells; format: cell-based; settings: ER Ca^2+ release
Protocol: Cell culture and transfection. C2C12, HEK293 and HeLa cells were cultured and maintained in Dulbecco's modified Eagle's medium (DMEM) supplemented with 10% fetal bovine serum (FBS) and high glucose (4.5 g/L) at 37° C. R-CatchER, G-CatchER2, G-CEPIA1er, R-CEPIA1er or R-CatchER with GFP-CaSR (wt and mutations) were transfected into cells using Lipofectamine 3000 (Life Technologies), following the manufacturer's instructions. Seed cells onto sterilized 22 mm×40 mm glass microscope slides in 6 cm dishes until about 70% confluency, the day of transfection. The next day, 2 μg of plasmid were mixed with transfection reagent in the reduced serum media Opti-MEM for 4-6 h at 37° C. The media was then replaced with 3 mL of fresh DMEM and incubated at 37° C. for 48 h.
HILO imaging of R-CatchER, G-CatchER2, R-CEPIA1er, and G-CEPIA1er. […] A quad-band filter set (TRF89901v2, Chroma) was used for filtering out the fluorescence background. Fluorescence images of samples were recorded at 1 Hz as the concentration of ER Ca^2+ was perturbed by perfusion of 3 μM Thapsigargin, 0.5 mM 4-cmc, 1 mM 4-cmc, 100 μM ATP, or 100 μM histamine.

[1] = pKa determination of the chromophore; format: physicochemical
Protocol: pKa determination. To measure the chromophore pKa of mApple, EGFP, and mCherry variants, the proteins were prepared in buffers (sodium acetate buffer for pH 3-5, MES buffer for pH 5-6, HEPES buffer for pH 6.5-8, TRIS buffer for pH 8.5-9) covering a pH range from 3 to 10. All samples were Incubated at 4° C. overnight, then the following day, the absorbance and fluorescence spectra were collected using a Shimadzu UV-1601 spectrophotometer and the Spectrofluorimeter.

[2] = system: primary hippocampal neurons; assay: Wide-field imaging in neuronal cultures; format: cell-based, mice; settings: for decrease of fluorescence upon DHPG: 100 μM DHPG; for ER Ca^2+ transient ΔF/F: field stimulation 50 Hz for 1 s
Protocol: Wide-field imaging in neuronal cultures. Primary neuronal cultures were generated from embryonic day 18 or postnatal day 0-1 mice and plated onto poly-D-lysine (Sigma) coated coverslips as previously described. Neurons were maintained in neuronal feeding media (Neurobasal media, ThermoFisher Scientific) containing 1% GlutaMAX (ThermoFisher Scientific), 2% B-27 (ThermoFisher Scientific), 0.002 mg/mL Gentamicin (Sigma) with or without 10 μM 5 fluoro 2-deoxyuridine (Sigma-Aldrich) and fed every 3-4 days via half neuronal feeding media exchanges. Neurons were transfected with plasmid(s) through either lipofection or electroporation. For lipofection, at 11-12 days in vitro, cells were transfected using Lipofectamine 2000 Reagent (ThermoFisher Scientific) with a modified protocol. For electroporation, dissociated cells in suspension were electroporated in a cuvette using the 4D-Nucleofector system (Lonza) following the manufacturer's instructions prior to plating in FBS-containing Neurobasal media without B-27. Full media exchange was performed the following day with serum- and antibiotics-free Neurobasal media.
Neurons were imaged between 12-15 days in vitro, using an inverted (Olympus IX71) or an upright (Scientifica HyperScope) wide-field fluorescence microscope equipped with an epi-fluorescence turret (Olympus), a scientific CMOS camera (Hamamatsu ORCA-Flash4.0 LT), a mercury lamp (Olympus) or an LED light source (CoolLED pE-300ultra), and an oil- (Olympus Uapo/340 40×/1.35NA) or water-immersion objective (Nikon CFI75 LWD 16×W 0.8NA), respectively. R-CatchER or jGCaMP7s was viewed using a TRITC (Chroma 41002) or FITC (Chroma 41001) fluorescence filter cube, respectively. Images were obtained every 5 s or 33.3 ms using Micro-Manager (the Vale lab, UCSF) at room temperature.
The external solution contained 150 mM NaCl, 3 mM KCl, 2 mM MgCl2, 2 mM CaCl2), 10 mM HEPES, and 20 mM glucose at a pH of 7.35. mGluR agonists were applied in the bath. Field electrical stimulation was applied with a stimulus isolator (World Precision Instruments A360) via an imaging chamber with two platinum wires (Warner Instruments RC-21BRFS). Trains (2 ms to 2 s at 50 HZ) of pulses (10 mA for 2 ms) were controlled by pClamp 10 software and Digidata 1440A data acquisition system (Molecular Devices). Imaging data were processed and analyzed using in-house and NeuroMatic (Jason Rothman) macros in Igor Pro 8 (WaveMetrics).

B1: R-CatchER: red genetically encoded Ca^2+ indicator, mApple A145E/K198D/R216D, SEQ ID NO: 12 (protein)
chain: EENNMAIIKEFMRFKVHMEGSVNGHEFEIEGEGEGRPYEAFQTAKLKVTKGGPLPFAWDILSPQFMYGSKVYIKHPADIPDYFKLSFPEGFRWERVMNFEDGGIIHVNQDSSLQDGVFIYKVKLRGTNFPSDGPVMQKKTMGWEESEERMYPEDGALKSEIKKRLKLKDGGHYAAEVKTTYKAKKPVQLPGAYIVDIDLDIVSHNEDYTIVEQYEDAEGRHSTGGMDELYK
C2C12 cells; 0.5 mM 4-cmc
  fluorescence decrease ΔF/F: 0.36±0.01
C2C12 cells; 1 mM 4-cmc
  fluorescence decrease ΔF/F: 0.47±0.02
[1]; 0 mM Ca^2+
  apparent pKa: 8.58±0.11
[1]; 10 mM Ca^2+
  apparent pKa: 7.11±0.10
[1]; Apo
  pka: 8.58 ± 0.11
[1]; Holo
  pKa (holo): 7.1
  pka: 7.11 ± 0.10
[1]; apo
  pKa (apo): 8.6
[2]; primary, first value (dendrites by printed order)
  decrease of fluorescence upon DHPG: 0.13±0.02
[2]; primary, second value (branchpoints by printed order)
  decrease of fluorescence upon DHPG: 0.08±0.01
[2]; secondary, first value (dendrites by printed order)
  decrease of fluorescence upon DHPG: 0.12±0.03
[2]; secondary, second value (branchpoints by printed order)
  decrease of fluorescence upon DHPG: 0.07±0.01
[2]; branchpoints
  ER Ca^2+ transient ΔF/F: 0.077±0.022
[2]; primary dendrites
  ER Ca^2+ transient ΔF/F: 0.083±0.039
[2]; secondary dendrites
  ER Ca^2+ transient ΔF/F: 0.036±0.017
[2]; soma
  ER Ca^2+ transient ΔF/F: 0.173±0.048
